Reference: PMC6093232, “PROMIS, global analysis of PROtein–metabolite interactions using size separation in Arabidopsis thaliana” (The Journal of Biological Chemistry, 2018)

Molecular target: His6-GAPC1/2 (cytosolic glyceraldehyde-3-phosphate dehydrogenase, GAPC1 or GAPC2) (A. thaliana, UniProt P25858 1-338)
Experiment: nano-DSF (thermal shift, Prometheus NT.48); plant GAPCs 0.2–0.25 mg/ml with 25 μM (GAPC1/2, GAPCP1) or 50 μM (GAPCP2) dipeptide in 1× PBS; thermal ramp 2 °C/min, 20–90 °C; Tm from F350/F330
Conditions: both partners purified

Sequence of His6-GAPC1/2 (cytosolic glyceraldehyde-3-phosphate dehydrogenase, GAPC1 or GAPC2) (P25858 whole entry): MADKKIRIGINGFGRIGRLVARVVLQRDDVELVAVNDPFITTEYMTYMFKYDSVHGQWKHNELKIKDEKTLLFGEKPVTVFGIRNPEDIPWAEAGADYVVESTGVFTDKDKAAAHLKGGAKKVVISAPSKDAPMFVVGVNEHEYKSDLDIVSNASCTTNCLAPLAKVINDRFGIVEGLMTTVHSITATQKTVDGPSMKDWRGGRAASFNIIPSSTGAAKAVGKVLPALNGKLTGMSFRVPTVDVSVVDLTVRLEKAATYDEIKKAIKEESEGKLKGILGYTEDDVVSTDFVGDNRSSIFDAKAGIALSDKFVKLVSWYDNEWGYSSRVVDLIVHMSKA

B1: dipeptide Tyr–Asp (peptide)
peptide: YD
notes: free dipeptide Tyr–Asp, printed in three-letter code; source: synthetic peptide; bought: Eurogentec
  decrease of Tm with 25 μM Tyr–Asp: ~1 °C
